Data reported in publication PMC12702776, “New insights into the classification of the RAC1 P29S hotspot mutation in melanoma as an oncogene” (Cancer Gene Therapy, 2025).

Biological target: RAC1^P29S, purified (human, UniProt P63000 1-192, P29S)
Assay: stopped-flow fluorimetry; mGppNHp-bound RAC1 with varying concentrations of His-IQGAP1 C794; kon, koff, Kd = koff/kon
Details: both partners purified

- fold higher binding affinity than that of PAK1 for RAC1^P29S: 30 fold
B1: His-IQGAP1 C794 (C-terminal 794 amino acids of IQ motif-containing GTPase-activating protein 1) (domain or fragment)
chain: PPMVVVRKFVHLLDQSDQDFQEELDLMKMREEVITLIRSNQQLENDLNLMDIKIGLLVKNKITLQDVVSHSKKLTKKNKEQLSDMMMINKQKGGLKALSKEKREKLEAYQHLFYLLQTNPTYLAKLIFQMPQNKSTKFMDSVIFTLYNYASNQREEYLLLRLFKTALQEEIKSKVDQIQEIVTGNPTVIKMVVSFNRGARGQNALRQILAPVVKEIMDDKSLNIKTDPVDIYKSWVNQMESQTGEASKLPYDVTPEQALAHEEVKTRLDSSIRNMRAVTDKFLSAIVSSVDKIPYGMRFIAKVLKDSLHEKFPDAGEDELLKIIGNLLYYRYMNPAIVAPDAFDIIDLSAGGQLTTDQRRNLGSIAKMLQHAASNKMFLGDNAHLSIINEYLSQSYQKFRRFFQTACDVPELQDKFNVDEYSDLVTLTKPVIYISIGEIINTHTLLLDHQDAIAPEHNDPIHELLDDLGEVPTIESLIGESSGNLNDPNKEALAKTEVSLTLTNKFDVPGDENAEMDARTILLNTKRLIVDVIRFQPGETLTEILETPATSEQEAEHQRAMQRRAIRDAKTPDKMKKSKSVKEDSNLTLQEKKEKIQTGLKKLTELGTVDPKNKYQELINDIARDIRNQRRYRQRRKAELVKLQQTYAALNSKATFYGEQVDYYKSYIKTCLDNLASKGKVSKKPREMKGKKSKKISLKYTAARLHEKGVLLEIEDLQVNQFKNVIFEISPTEEVGDFEVKAKFMGVQMETFMLHYQDLLQLQYEGVAVMKLFDRAKVNVNLLIFLLNKKFYGK
notes: neither is stated here
